Assay results as given in patent publication US10434147B2, “Treatment type 2 diabetes mellitus patients” (Sanofi-Aventis Deutschland GmbH, priority 2015, dated 2019).

System: Patients with Type 2 Diabetes Insufficiently Controlled with Insulin Glargine with or without Metformin
Experiment: Treatment-emergent adverse events, 26-week study
Assay type: in vivo, human
Description: FIG. 6—Graphical study design. ^1 Insulin glargine should be injected subcutaneously once daily at dinner or breakfast time (according to patient's/investigators' preference). […] Meal used for insulin glulisine dosing should remain the same throughout the 26-week treatment period. ^4 Injection of insulin glulisine prior to breakfast, lunch and dinner.
Co-primary endpoints at 26 weeks were (1) non-inferiority (95% CI upper bound <0.4%) in HbA1c reduction with LIXI vs GLU-1 and (2) for LIXI vs GLU-3, either non-inferiority in HbA1c reduction (2a) OR superiority (one-sided α≤0.025) in body weight change (2b). FPG, PPG, IG dose, composite outcomes, AEs, and hypoglycemia were assessed.

[1] = Safety population, PT ≥ 3% table

“Insulin Glulisine TID: insulin glulisine three times daily, added to insulin glargine ± metformin (comparator arm)” was tested, and the “Patients with any TEAE leading to death” value (Safety population) was 2 (0.7%) n (%), the “Patients with treatment emergent SAE: Accidental overdose” value (Safety population) was 1 (0.3%) n (%) and the “Patients with TEAE: Accidental overdose” value [1] was 20 (6.8%) n (%). The “Patients with TEAE: Headache” value [1] was 12 (4.1%) n (%), the “Patients with TEAE: Hypoglycaemia” value [1] was 154 (52.4%) n (%) and the “Patients with TEAE: Infections and infestations (SOC)” value [1] was 81 (27.6%) n (%). The “Patients with TEAE: Influenza” value [1] was 14 (4.8%) n (%), the “Patients with TEAE: Injury, poisoning and procedural complications (SOC)” value [1] was 28 (9.5%) n (%) and the “Patients with TEAE: Investigations (SOC)” value [1] was 92 (31.3%) n (%). The “Patients with TEAE: Metabolism and nutrition disorders (SOC)” value [1] was 157 (53.4%) n (%), the “Adjudicated by PSAC: Acute on chronic pancreatitis” value (in vivo) was 0 n (%) and the “Adjudicated by PSAC: Acute pancreatitis” value (in vivo) was 0 n (%). For the same substance, the “Adjudicated by PSAC: Chronic pancreatitis” value (in vivo) was 0 n (%), the “Adjudicated by PSAC: Unknown pancreatitis” value (in vivo) was 0 n (%) and the “Gastrointestinal AEs: Diarrhea” value (in vivo) was 4 (1) n (%). The “Gastrointestinal AEs: Nausea” value (in vivo) was 3 (1) n (%), the “Gastrointestinal AEs: Vomiting” value (in vivo) was 6 (2) n (%) and the “Patients with TEAE on the specific adverse event form for increased calcitonin (>=20 ng/L): Any” value (in vivo) was 1 (0.3%) n (%). For the same substance, the “Patients with TEAE on the specific adverse event form for increased calcitonin (>=20 ng/L): Blood calcitonin increased” value (in vivo) was 1 (0.3%) n (%), the “Patients with TEAE: Any class” value (in vivo) was 236 (80.3%) n (%) and the “Patients with TEAE: Blood glucose decreased” value (in vivo) was 82 (27.9%) n (%). For the same substance, the “Patients with TEAE: Diarrhoea” value (in vivo) was 4 (1.4%) n (%), the “Patients with TEAE: Gastrointestinal disorders (SOC)” value (in vivo) was 22 (7.5%) n (%) and the “Patients with TEAE: Nasopharyngitis” value (in vivo) was 18 (6.1%) n (%). For the same substance, the “Patients with TEAE: Nausea” value (in vivo) was 3 (1.0%) n (%), the “Patients with TEAE: Nervous system disorders (SOC)” value (in vivo) was 29 (9.9%) n (%) and the “Patients with TEAE: Upper respiratory tract infection” value (in vivo) was 11 (3.7%) n (%). For the same substance, the “Patients with TEAE: Vomiting” value (in vivo) was 6 (2.0%) n (%), the “Patients with any TEAE” value (in vivo) was 236 (80.3%) n (%) and the “Patients with any TEAE leading to permanent treatment discontinuation” value (in vivo) was 3 (1.0%) n (%). The “Patients with any treatment emergent SAE” value (in vivo) was 14 (4.8%) n (%), the “Patients with events adjudicated as allergic reaction by ARAC: All, Any category, Any event” value (in vivo) was 1 (0.3%) n (%) and the “Patients with events adjudicated as allergic reaction by ARAC: OTHER ALLERGIC REACTION, Rhinitis allergic” value (in vivo) was 1 (0.3%) n (%). For the same substance, the “Patients with events adjudicated as allergic reaction by ARAC: Possibly Related to IMP, Any event” value (in vivo) was 0 n (%), the “Patients with events adjudicated as allergic reaction by ARAC: URTICARIA (HIVES), Urticaria” value (in vivo) was 0 n (%) and the “Patients with treatment emergent SAE: Abdominal pain” value (in vivo) was 0 n (%). For the same substance, the “Patients with treatment emergent SAE: Angina pectoris” value (in vivo) was 1 (0.3%) n (%), the “Patients with treatment emergent SAE: Angina unstable” value (in vivo) was 0 n (%) and the “Patients with treatment emergent SAE: Ankle fracture” value (in vivo) was 0 n (%). For the same substance, the “Patients with treatment emergent SAE: Any class” value (in vivo) was 14 (4.8%) n (%), the “Patients with treatment emergent SAE: Atrial fibrillation” value (in vivo) was 0 n (%) and the “Patients with treatment emergent SAE: Atrioventricular block complete” value (in vivo) was 1 (0.3%) n (%). The “Patients with treatment emergent SAE: Basal cell carcinoma” value (in vivo) was 1 (0.3%) n (%), the “Patients with treatment emergent SAE: Cardiac disorders (SOC)” value (in vivo) was 5 (1.7%) n (%) and the “Patients with treatment emergent SAE: Cardiac failure chronic” value (in vivo) was 1 (0.3%) n (%). The “Patients with treatment emergent SAE: Cardiac failure congestive” value (in vivo) was 1 (0.3%) n (%), the “Patients with treatment emergent SAE: Cellulitis” value (in vivo) was 1 (0.3%) n (%) and the “Patients with treatment emergent SAE: Cerebrovascular accident” value (in vivo) was 2 (0.7%) n (%). For the same substance, the “Patients with treatment emergent SAE: Decreased appetite” value (in vivo) was 0 n (%), the “Patients with treatment emergent SAE: Dehydration” value (in vivo) was 0 n (%) and the “Patients with treatment emergent SAE: Diabetic bullosis” value (in vivo) was 0 n (%). The “Patients with treatment emergent SAE: Epigastric discomfort” value (in vivo) was 0 n (%), the “Patients with treatment emergent SAE: Erysipelas” value (in vivo) was 0 n (%) and the “Patients with treatment emergent SAE: Gastric ulcer haemorrhage” value (in vivo) was 0 n (%). The “Patients with treatment emergent SAE: Gastrointestinal disorders (SOC)” value (in vivo) was 0 n (%), the “Patients with treatment emergent SAE: Hepatic mass” value (in vivo) was 0 n (%) and the “Patients with treatment emergent SAE: Hepatobiliary disorders (SOC)” value (in vivo) was 0 n (%). The “Patients with treatment emergent SAE: Hypertension” value (in vivo) was 1 (0.3%) n (%), the “Patients with treatment emergent SAE: Hypoglycaemia” value (in vivo) was 0 n (%) and the “Patients with treatment emergent SAE: Hypoglycaemic unconsciousness” value (in vivo) was 0 n (%). For the same substance, the “Patients with treatment emergent SAE: Incisional hernia” value (in vivo) was 0 n (%), the “Patients with treatment emergent SAE: Infections and infestations (SOC)” value (in vivo) was 1 (0.3%) n (%) and the “Patients with treatment emergent SAE: Injury, poisoning and procedural complications (SOC)” value (in vivo) was 1 (0.3%) n (%). The “Patients with treatment emergent SAE: Invasive ductal breast carcinoma” value (in vivo) was 1 (0.3%) n (%), the “Patients with treatment emergent SAE: Metabolism and nutrition disorders (SOC)” value (in vivo) was 0 n (%) and the “Patients with treatment emergent SAE: Myocardial infarction” value (in vivo) was 0 n (%). For the same substance, the “Patients with treatment emergent SAE: Myocardial ischaemia” value (in vivo) was 1 (0.3%) n (%), the “Patients with treatment emergent SAE: Neoplasm malignant” value (in vivo) was 1 (0.3%) n (%) and the “Patients with treatment emergent SAE: Neoplasms benign, malignant and unspecified (incl cysts and polyps) (SOC)” value (in vivo) was 3 (1.0%) n (%). The “Patients with treatment emergent SAE: Nervous system disorders (SOC)” value (in vivo) was 2 (0.7%) n (%), the “Patients with treatment emergent SAE: Neuritis cranial” value (in vivo) was 0 n (%) and the “Patients with treatment emergent SAE: Pancreatic carcinoma metastatic” value (in vivo) was 0 n (%).
